To fix the notation:
B1: glmS ribozyme (parent)
chain: AUAAAAGCGCCAGAACUACAGAAAUGUAGUUGACGAGGAGGAGGUUUAUCGAAUUUUCGGCGGAUGCCUCCAAA

Holding throughout (details): with glucosamine-6-phosphate
In data set [1] the parent is B1. The data set is described as follows: self-cleavage kobs at 640 uM GlcN6P; higher = faster cleavage; RNA array. The method in brief:
(§1)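 On sequenced MiSeq chips, barcoded ribozyme variants were made in situ by E. coli RNA polymerase and followed at 37 °C through a hybridised Cy3 probe. Glucosamine-6-phosphate was flowed in at 40 μM to 10 mM in HEPES/KCl/Mg(OAc)2 buffer. Exponential fits to normalised per-tile medians gave kobs, and weighted Michaelis–Menten fits gave kcat and KM.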

Variants of B1 are the subject of data set [2]. Put plainly: self-cleavage kobs at 2500 uM GlcN6P; higher = faster cleavage; RNA array. The method in brief: as §1
Data set [3] covers variants of B1. Put plainly: self-cleavage kobs at 10000 uM GlcN6P; higher = faster cleavage; RNA array. A digest of the protocol:
as §1

± gives the standard error. Variants at the floor of the assay were thinned out. Where only a bound is given, the exact number is not on record here.

For AUAAAAGCGCCAGAACUACAGAAAUGUAGUUGACGAGAAGGAGGUUUAUCGAAUUUUCGGCUGAUCCCUCCAAA, the “self-cleavage kobs at 640 uM GlcN6P” value with glucosamine-6-phosphate [1] was under 1e-05 s⁻¹.
On to AUAAAAGCGCCAGCACUACAGAAAUGUAGUUGACGAGGAGGAGGUUUAUCGAAUUUUCCGCGGAUGCCUCAAAA, for which the “self-cleavage kobs at 640 uM GlcN6P” value with glucosamine-6-phosphate [1] was under 1e-05 s⁻¹.
Same read-out and setting: in the case of AUAAAAGCGCCAGAACUACAGAAAUGUAGUUGACGGGGCGGAGGUUUAUCGUAUUUACGGCGGAUGCCUCCAAA it was under 1e-05 s⁻¹.
For the variant AUAAAAGCGCUAGAACUACAGAAAUGUAGUUGACGAGGAGGAGGUUACUCGAAUUUUCGGAGGAUGCCUUAAAA, the “self-cleavage kobs at 640 uM GlcN6P” value with glucosamine-6-phosphate [1] was under 1e-05 s⁻¹. For the same variant, the “self-cleavage kobs at 2500 uM GlcN6P” value in the data set with glucosamine-6-phosphate [2] is under 1e-05 s⁻¹.
In the case of AUAAAAGCGCCAGUACUACAGAAAUGUAGUUGACGGGGAAAAGGUUUAUCGAAAUUACGGCGGAUGCCUCUAAA, in the data set with glucosamine-6-phosphate [1], the “self-cleavage kobs at 640 uM GlcN6P” value is under 1e-05 s⁻¹.
With AUAAAAGCGCCAGAACUACAGAAAUGUAGUAGACCAGUAGGAGGUUUUGCGAAUUUUCGGCGCAUGCCUCCAAA, in the data set with glucosamine-6-phosphate [1], the “self-cleavage kobs at 640 uM GlcN6P” value was under 1e-05 s⁻¹. Besides, the “self-cleavage kobs at 2500 uM GlcN6P” value with glucosamine-6-phosphate [2] was under 1e-05 s⁻¹.
As for AUAAAAGCGCCAGAACUACAGAAAUGUAGUUGACGAGGAGGUGCUUUAUCGCAUUUGCGGCGGAAGCCCCCAAA, the “self-cleavage kobs at 640 uM GlcN6P” value with glucosamine-6-phosphate [1] is under 1e-05 s⁻¹. In addition, the “self-cleavage kobs at 2500 uM GlcN6P” value in the data set with glucosamine-6-phosphate [2] was under 1e-05 s⁻¹.
Take AUAAAAGCGCCAGAACUACAGAAAUGUAAUUGACCAGGAAGAGGUUUAUCGAAUUUUCGGCGGAUGCCUCCAAA: the “self-cleavage kobs at 640 uM GlcN6P” value with glucosamine-6-phosphate [1] is under 1e-05 s⁻¹.
Turning to AUAAAAGCGUCAGAACUACAGAAAUGUAGUUGACGAGGCGAAGGUAUAUCGAAUUUUCGGCGGAUGCCUCCAAA, in the data set with glucosamine-6-phosphate [1], the “self-cleavage kobs at 640 uM GlcN6P” value was under 1e-05 s⁻¹. Further, the “self-cleavage kobs at 2500 uM GlcN6P” value with glucosamine-6-phosphate [2] was under 1e-05 s⁻¹.
Take AUAAAAUCGCCAGAACUACAGAAAUGUAGUGGACGAGGAGGAGGUUUAUCGAAUUUUCGGCGGAUGCCUACAAA: the “self-cleavage kobs at 640 uM GlcN6P” value in the data set with glucosamine-6-phosphate [1] is 0.000541 ± 0.00017 s⁻¹.
Consider AUAAAGGCGCCAGAACUACAGAAAUGUAGUUGACUAGGAGGAGGUUUAUUGAAUUUUCGGCGGAUGCCUCCAAA, for which the “self-cleavage kobs at 640 uM GlcN6P” value in the data set with glucosamine-6-phosphate [1] is under 1e-05 s⁻¹.
Regarding AUAAAAGCACCAGAACUACAGAAAUGUAAUUGACGAGGAGGAGGUUUAUCGAAUUUUCGGCGUAUGCCUCCAAA, the “self-cleavage kobs at 640 uM GlcN6P” value with glucosamine-6-phosphate [1] is under 1e-05 s⁻¹. For the same variant, in the data set with glucosamine-6-phosphate [2], the “self-cleavage kobs at 2500 uM GlcN6P” value is under 1e-05 s⁻¹.
For the variant AUAAAGGCGCCAGAACUACAGAAAUGUAGUUUACGAGGAGGAGGUUUAUCGAAUUUUCGGAGGAUGCCUCCAAA, the “self-cleavage kobs at 640 uM GlcN6P” value with glucosamine-6-phosphate [1] was under 1e-05 s⁻¹. Also, the “self-cleavage kobs at 2500 uM GlcN6P” value in the data set with glucosamine-6-phosphate [2] was under 1e-05 s⁻¹.
Regarding AUAAAAGCGCCUGAACUACAGAAAUGUAGUUGACGAGGAGGAGGUUGAUCGUAUUUUCGGUGGAUGCCUCCAAA, the “self-cleavage kobs at 640 uM GlcN6P” value with glucosamine-6-phosphate [1] is under 1e-05 s⁻¹.
The same measure, in the same setting: for AUAAAAGCGCCAGAACUACAGAAAUGUAGUUGACGAGGAGGAGGUUUUACGAAUUUUCGGCGGAUGCAUCCAAA the value was under 1e-05 s⁻¹.
On to AUAAAGGCGCCAGAACUACAGAAAUGUAGUUGACGAGGAAGAGGUUUAUCGAAUUUUCGGCGGAUGUCUCCAAA, for which the “self-cleavage kobs at 640 uM GlcN6P” value with glucosamine-6-phosphate [1] was under 1e-05 s⁻¹. Also, the “self-cleavage kobs at 2500 uM GlcN6P” value with glucosamine-6-phosphate [2] was under 1e-05 s⁻¹.
On to AUAAAACCGCCAGAACUACAGAAAUGUAGUUGACGAGGAGGAGGUUUGUCGAAGUUUCGGCGGAUGCCUCCAAA, for which the “self-cleavage kobs at 640 uM GlcN6P” value with glucosamine-6-phosphate [1] is under 1e-05 s⁻¹.
For the variant AUAAAAGCGCCAGAACUACAGAAAUGUAUUUGACGUGGGGGAGGUUUAUCGAAUUUUCGACGGAUGCCUCCAAA, the “self-cleavage kobs at 640 uM GlcN6P” value with glucosamine-6-phosphate [1] is under 1e-05 s⁻¹.
As to AUAAAUGAGCCAGAACUACAGAAAUGUAGUGGACGAGGAGGAGGUUUAUCGAAUUUUCGGCGGAUGCCUCCAAA, in the data set with glucosamine-6-phosphate [1], the “self-cleavage kobs at 640 uM GlcN6P” value was under 1e-05 s⁻¹. For the same variant, in the data set with glucosamine-6-phosphate [2], the “self-cleavage kobs at 2500 uM GlcN6P” value was under 1e-05 s⁻¹.
In the case of AUAAAAGCGCCAGGACUACAGAAAUGUAGUUGACGAGGAGGACGUUUAUCUAAUUUUCGGCGGGUGCCUCCAAA, in the data set with glucosamine-6-phosphate [1], the “self-cleavage kobs at 640 uM GlcN6P” value is under 1e-05 s⁻¹.
AUAAAAGCGCCAGAACUACAGAAAUGUAGUUGACGACGAGGAGGUUUAUCGACUUUUCGACGGAUGCCUCCAAA: the “self-cleavage kobs at 640 uM GlcN6P” value in the data set with glucosamine-6-phosphate [1] was under 1e-05 s⁻¹.
On the same count and under the same terms, in the case of AUAAAAGAGCCAGAACUACAGAAAUGUACUUGACGCGGAGGAGGUUUAUCGAAUUUUCGGCGAAUGCCUCCAAA it was under 1e-05 s⁻¹.
As for AUAAAAGCGCCAGAACUACAGAAAUGUAGUUGACGAGGAGGAGGUUUAUCGAAUAAUCGGCGGAUGCCUCCAAA, in the data set with glucosamine-6-phosphate [1], the “self-cleavage kobs at 640 uM GlcN6P” value came out at 0.00306 ± 0.00092 s⁻¹. Further, the “self-cleavage kobs at 2500 uM GlcN6P” value with glucosamine-6-phosphate [2] stood at 0.00346 ± 0.0013 s⁻¹. In addition, in the data set with glucosamine-6-phosphate [3], the “self-cleavage kobs at 10000 uM GlcN6P” value stood at 0.0126 ± 0.0024 s⁻¹.
As for AUAAAAGCGCCAGAACUACAGAAAUGUAGUUGAGGAGGAGGAGAUUUAUCGAAUUCCCGGCGGAUGCCUCCAAA, the “self-cleavage kobs at 640 uM GlcN6P” value in the data set with glucosamine-6-phosphate [1] is under 1e-05 s⁻¹.
For AUAAAUGCGCCAGAACUACAGAAAUGUAGUUGACGCGUAGGAGGUUUAUCGAAUUCUCGGCGGAUGGGUCCAAA, the “self-cleavage kobs at 640 uM GlcN6P” value with glucosamine-6-phosphate [1] came out at 0.000412 ± 0.0001 s⁻¹. Further, the “self-cleavage kobs at 2500 uM GlcN6P” value with glucosamine-6-phosphate [2] was 0.000145 ± 4.4e-05 s⁻¹.
For AUAAAAGCCCCCUAACUACAGAAAUGUAGUUGACGAGGAGGAGUUUUAUCGAAUUUUCGGCGGAUGACUCCAAA, in the data set with glucosamine-6-phosphate [1], the “self-cleavage kobs at 640 uM GlcN6P” value was under 1e-05 s⁻¹.

Source of the values: the supplement of paper PMC7125110.
